B1: AfPOD (Alcaligenes faecalis) (protein)
chain: MDTPLRDKSYFDERATKEMATHLQQVQRDTRETMAFACRILAMTEQEAGLAGQISVRSERPGAYWTLRFGLGFDEATPEDFIEVDRDLNTLSGEGMANPATRFHLWVYEARPDVNSIIHTHSPWATVLATARQPLVISQMDMTPLHNDCAFLGEWPGVPIADQEGVIISKALGDKRAIILAHHGYLTAGKSCQEATYLSVYLERAARLQVRAQAAFGPLTPVDDTLAAEAHDYLLKPSIVNATFDYWSRQTQGIAPLTKTR

The molecules below were run on T1, CC(=NO)C(=O)O (assay: nitrite production, diazo-coupling spectrophotometry). Conditions: 20 mM Tris-HCl pH 8.0, 1.0 mM sodium ascorbate, 100 µM FeSO4, O2 as co-substrate.
T1 construct: full length, 261 residues (Met1-Arg261); recombinant in E. coli; variants with C-terminal His6-tag, WT by two untagged chromatographic steps; homotetramer, Fe(II)-dependent
Assay type: biochemical, Alcaligenes faecalis
Excerpt: (§1) nitrite production, diazo-coupling spectrophotometry on AfPOD
AfPOD (Alcaligenes faecalis; E164A) gave a Km of 943 ± 240 µM, a kcat of 0.27 ± 0.02 s⁻¹ and a kcat/Km of 290 M⁻¹ s⁻¹.
AfPOD (Alcaligenes faecalis; E229K) showed a Km of 2150 ± 172 µM, a kcat of 4.58 ± 0.098 s⁻¹ and a kcat/Km of 2100 M⁻¹ s⁻¹.
In the case of AfPOD (Alcaligenes faecalis; E229K/K8E), the Km is reported as 2538 ± 568 µM, the kcat is reported as 1.76 ± 0.109 s⁻¹ and the kcat/Km is reported as 690 M⁻¹ s⁻¹.
AfPOD (Alcaligenes faecalis; F69A) gave a Km of 41509 ± 9984 µM, a kcat of 0.246 ± 0.018 s⁻¹ and a kcat/Km of 5.9 M⁻¹ s⁻¹.
AfPOD (Alcaligenes faecalis; F103A) was tested, and the Km was 89 ± 22 µM, the kcat was 0.008 ± 0.001 s⁻¹ and the kcat/Km was 90 M⁻¹ s⁻¹.
AfPOD (Alcaligenes faecalis; H104A) showed a Km of 170 ± 37 µM, a kcat of 0.21 ± 0.013 s⁻¹ and a kcat/Km of 1200 M⁻¹ s⁻¹.
With AfPOD (Alcaligenes faecalis; K8E) the Km was 68766 ± 20299 µM, the kcat was 0.632 ± 0.066 s⁻¹ and the kcat/Km was 9.2 M⁻¹ s⁻¹.
Work on AfPOD (Alcaligenes faecalis; Q53A) yielded a Km of 96 ± 18 µM, a kcat of 0.162 ± 0.008 s⁻¹ and a kcat/Km of 1700 M⁻¹ s⁻¹.
Work on AfPOD (Alcaligenes faecalis; Y233A) yielded a Km of 42247 ± 16705 µM, a kcat of 0.012 ± 0.001 s⁻¹ and a kcat/Km of 0.3 M⁻¹ s⁻¹.

The molecules below were run on CC(=NO)C(=O)O in the same assay as above. Conditions: 20 mM Tris-HCl pH 8.0, 1.0 mM sodium ascorbate, 100 µM FeSO4, O2 as co-substrate.
Assay type: biochemical, Alcaligenes faecalis
Excerpt: as §1
Molecule B1 has a Km of 622 ± 83 µM, a kcat of 4.8 ± 0.169 s⁻¹ and a kcat/Km of 7700 M⁻¹ s⁻¹.

Reference: PMC11841055, “Structural characterization of pyruvic oxime dioxygenase, a key enzyme in heterotrophic nitrification” (Journal of Bacteriology, 2025)
